Test: soluble on expression in E. coli; label from the status in PepcDB or PDB records

Soluble on expression in E. coli, not soluble:
MGSDKIHHHHHHMVEPSKVVGLISDFGDSPYTGIMRAVIKSISRELQIIDIDHSIPSFSPLAGAYVVAHTYQWLPKGSVIVAVVDPGVGTSRYALAVETENYVFIGPDNGVLYPAAASDGIKRVYALREKDVNSLARMKTSSTAGTVKPWSISRTFHGRDVFAPAGALIAAGHASLEELGDEIEPERMKRASIDHVEKLGPSTFRATVVYIDKFGNVALSIRPKKLGINLSLYKSVVLGTHTTSNTIRMGKTFGDANPGELVAYENSFGHLEIAVNRGNAAKKLGLELEARVEIELLENSGPAPNGSRGVRNADLLGVSSRSLGETIW, MGSDKIHHHHHHMVETLAGLFDFEMDPQSGVALTRQLRDQLRRAIAAGSLASGRRLPSSRALALHLRVSRNTVCAAIEQLAMEGYLDVSRGRRPVVAPMPSAGLVAIGSDRPVSDGRSGMSQWAQRIDRSDWPFISEGRPTPFAPCVADARAFPHAIWGRCLRTATRYAVARTSTACNRPGLRRALLHHLVEYRGVNADAHQVFLMPTAQAAIALVARVLLDPGDLAWVESPGYGGARAAFEAAGATVQGIALDQSGMAFETSTDTPRLIFVTPAHQHPTGLLMPPARRQALLRFAARVGARIIEDDYDSEFHYEGRPVAALQGADDADSVFYVGTFSKSLHADIRVGYVVVPGHFVDVFAKAQRHTGQIVGATLQDALAEFIDDGHYAAHIRKTTRLYHARRDYLCDALKAVGSELTVSPPDGGMQVVARLGPLRDDREICRRLAEAGVTARPLSPHYCAQTGAQGLFLGFAAWNECEIDAGVRILARVIREPEPSK, MGSDKIHHHHHHMVGALAILMVGYSAAEAGGLRDLLEQGGLSAKVDCVAMADMLPGRLQQQEWDLVLTDDRPDLSAAQVLGLLARLGLDVPVIALVSRQDEQAAAHLIAAGVQDVLLKSDPVQLMATIRGCQRYIGHLRDLREAQLALERSEARFRAIASNLPGLVFQFVLESDGSVFFPYVSEGSRSLLGLSPDYLQKKPNSFARLIVATDVASYDQSLQDSCEHLSAWNWEGRIQAKGDMDVKWISLRATPRRTPRGAVLWDGIMLNITRNKQIELEIARSRAQLEELSAYSQKAKEQERTRIAREIHDDIGGTLTAIKCELVPCLDNSSRTPEFYRNKAEAVESLVDMVIDSTRRIALDLRPGVLDCGIVAAVQWQAREFNQRTGVSCTVACDYEDISLDGDLAVAIFRIFQEALTNIAKHANASEVRVKLAETGSQVYLEVTDNGCGITNPDMEKVNSFGIRSMRERCQQLGGQFHIQGGPLAGTEVLIRIPVNGQSTVGRESRLN, MGSDKIHHHHHHMVGIVLASHGNFAEGIYQSAEMIFGKQQNVQTVTLSPNEGPEDFLNKLKQAIDSFDDQKQVLLLIDLWGGTPFNQSSGLLSGHEDSWAVVTGMNLPMVIEAYGSRSSMDSAQEIATHIIETGKDGIRIKPESLEPKKATATVKSSGQPHGTIAPGTVLGDGKIKYVLARVDSRLLHGQVAMSWTKSTNPNRILVVSDSVAKDRLRKSMIVEAAPPGVNTNVIPIKKMIEVAKDPRFGNTKALVLFENPEDALKTIEGGVDIKELNIGSMSHAVGKVAVNKVLSLGKEDVEAFDGLKKLGVKFDVRKVPGDSSENMDNIVIKLEKIYQVLNLKKIRRV, MGSDKIHHHHHHMVKELDLQSVQGTMLIPLWGRAYGSEKNKNILDDTEAIRIIKEFDFDFSTIENTFGEYGCITYITRARKIDDTIKQFITKHPNATIVNIGSGLDTTFSRIDNGTIHWYNLDLPDAISFRKTLIEDTSRNTSIAKSFFDTSWFDDIKYDPNDGILFISAGVFYYFKEEDLKKIVVAMSKRFPGGELYFDAESKFALNLSNATVKKSGNNGALMYFYINNPKTLEKWSPNIKVLSCSPFFKNIPTNKGWDGSTRIMIRIVNLIKMLKFVHLRFEK, MGSDKIHHHHHHMVKTVNWRDLLEPQTKIRDPLYGYIWVTDDELQIIDTPIFQRLRRVNQLALTKYVYPTAEHSRFVHSLGAMHCATQIFTGILNNTHSYHGIRAIDSANMLRRLRYAALLHDIGHIAFSHAAEKLILNPLQHEHLGQFIIANYSPISSILGEHIKPVISILADSVTQDNRLLHQIISGHLDADRADYLMRDSHACGVKYGEYDFERYMQAFGAINESNELKLFVHERDIFVIESFLVARHHYNMQVPYHRTRMGYDIILGRFLKEFLPKCDDAKLGLTVEEGAYTKVDLQKFEFFDDYSVFNHIKHEARTGNLWANMLLRQGHLCPVYDTTDSVDRGGKVFKKIIRRLKAKNFVEDDDFFQCRKEITASKLISTDEKENSLADTSRETIYVRTKSGKLVDIVKHSNIVRALRPVTIYRIYTSQKRKSEAEAVIADVCRKTQVDRRG, MGSDKIHHHHHHMVKYMKIVGITDLHGKLPPAVREFKDFADVLVVCGDITHFGKGIEVIEKLAELSDYMEVLCVPGNCDTKEVIDELNSFKLNIDRKVKKIENINFVGIGGSNKTPFNTPNEYTEEEIYNKLINVVKNLKNIFLVSHAPPYNTMADIVDLDKDIHVGSKSIRKIIEDFNENIRFCACGHIHESRCIDKIGNTIVVNPSPKSYFVYDTKKNMVVLDDFNGF, MGSDKIHHHHHHMVNFSYRVFAAVVEKKTFFHAAESLNVTPSAVSHSISQLENELGFPLFLRNHSGVELTNDGKTVLPVIQAILNTEEELYQVSASIKGLNSGRIRIGAFSSVCINWLPTIIRRFKNQYPQVEVTVFQGNFNQIADGVSNGSIDIGFSSLPVDDKLLVEPLIKDRIYCVAPSDFVPKDKMNVTNQDIGRRRFILQQIDYDRDTKKALDQYNVTPNSLTYSIDDQSILSMVESGLGLGILPELALKKLSGNVHIYPFDKNFARTICLVTNKNLAQAPSTKRMLKEINSFLRSNYKNQFLG, MGSDKIHHHHHHMVNLMNINSHYLHNNSHECVSLSVRSKGTTQCPDIKVTQKAHIELGTLATPQLVRRRSGRYTIRLRLKGHAKPFISVSTRTTNRSIAVMRQKELATTAKAFLLDNPEVSKEELREHLKAMAEWLLTEATDDYWNGLDIAWLEDAKVNLRNIAATERLSAVQQTHIVESLKVLEAGQKRVDYGDATGLLDFVADDNTDSANNHTQGSTIGVLSSNLENQQGGSSSVFTYDDLVSMTLAEKITTLATSSYRDLQSSFSTVRGYAPVDLMDRSAWLKARDELLANGKAAITVNKLFVKVRMAIDYALMNGHLQGRNPIEKMKLTKDAESKRRAMTDEEIQMVLKAAESAPEARRWAVLVSIITGARSAEVAQLTKENIVVVDGITCIDINDDEGKKVKNKHSIRLIPLIDGAYGFNLEAFLKFVNTREPKTAIFGMTAGTYTAYFGRSIKGSIDALKDTKNVCMHSLRHSLTGKLKAAGVPLADAQGVLGHSSQSITYDLYGKGHAIGRLSDALRLALSGTGQ, MGSDKIHHHHHHMVNPKLPVIWYGGDYYPEQWDEETFERDIRMFKEAGINVVTIGVFSWSLIQPDENTYDFSFFEKVMDRLYKEGIYVCLATPTSAPPHWMTQKYPEILFTDVNGVKREKGGRQNFCPNSEKYRYFARNIAEKLAEHFKDHPALVLWHVNNEYLNYCYCDICRGKFQNWLKEKYGTLDELNRRWNTRFWSQTFTAWEEIPVPTTRSVLVWRKDRYQSVLPELYLDYRRFMTQSMLECFLEEYRAIKKHTPDIPVTTNLIAATFKEWNYFEWAKHMDVAAWDNYPGYKEDFSVISLRHSLIRCLKEGKPFVLMEQSPSQACWRWYNPQKRPGEMRLWSYHALAHGAETLMFFQLRQSKGGVEKFHGAVITHVDSPNTRVFQEVKRVGEEIKSLSDILDARVVSQTALLFDWESWWAMEDTLTPSVDFRYLNEVQKYFKALVKTGLGVDVVGKDQNFERYRVLVAPVLYMVGKELAQKLKDYVSNGGILILTTMSGIVDEDDQVVLGGYPGYLRDLMGGYVEEIDALPPEEKNEILMFGKRYECSLVFDYIKTTTAEVLGRFGRDYYMNEPAVLRNNYGKGWVYYVGSSTSFDLVWDLVKFMEREHNLRAEIAPPDDVEVIKKIKGEKIFYFLFNHSHELQIVDLPEGMFRDLIKGNLYEKKVKLQPLDVLILLKE, MGSDKIHHHHHHMVRLNEIKMQDGKIFLITGANSGLGYETSKFLLERGATVIMCCRDLLKGEKAKKELLKFKFSGKIELVELDLSDLINVKKFAESIKNTFDHLDVLINNAGIMAPPKTLSKQGFEIQFAVNHLAHMFLTLELLPMLEEKNNSRVVTVTSGVQYFGKIQWEDLQGNLKYDRWASYAQSKLANVMFGLELDSKLKETNSKTSSLLAHPGFARTNLQPKSVEANQSWQEELAYKLMDPMFQSAKMGALPQITAATLTSASGGEQYGPRFNFRGFPKICRNAPKALNQTSRKKLWDISEKLIKDFDTLSKQSK, MGSDKIHHHHHHMVRTTKFGDLPVLHVFAASQAQTKLPTIIDYHGWTNQTATELGTAYQLVRAGFRVILPTAYLHGSRNDGTDLDRHPEHFWSIVGHSVAEFPQLVAALVAAGISDANKIGVMGTSMGGITAAGIMATQPTVVAGVSLIGSPEPVAFATDQVAQLPAALQAKLPAELIEQTYQQLAKFDLSEHPEALAGRPMFFFNGTADQMVPYQYIRDFKHRFKDEPALKATVFKRAEGGVHHVPHKIQEAAVAFLETNILK, MGSDKIHHHHHHMVSPEHLRRSKAVQRRTGRTFHIATRFLPERVRYPTYVLYAFFRLTDEIVDDEAPGPPDEQRRRLAHVRAAALGDRDPDDPVLAAFAALREDHDIPREEVTTFIDAMQQDVDTARYRSHDDLAEYLRGSSVAVGYMMLSIMDAPEPERARPHAASLGEAFQLTNFLRDVREDVLDYDRIYLPSQTLAAHGASHDDIAALSATPQVRDAIRAELDRTERLYRHGVAGIEHLPADCQFPVLAAAVMYADQHRLIRAQDCDVLSQRPTLTLRRRLSVVARTWLRWRVSDDPTAVFHAVTGIGEPDAGGVPEQSFAVRESQPTRAD, MGSDKIHHHHHHMVVIEFKNVSKHFNLYKNKSYSLKEKFLNKVLNRNKLEVEQLHVLKNASFKIGQGETIGIIGENGTGKSTSLKLVANIIRPNEGQVTVKGKISSLLEVGVGFQPDMTGRENVYLYGSIMGLSKKEIDERYDEIVEFAELENFMDTPVKNYSSGMYMRLGFSVAVTVNPDILLVDEVLAVGDANFQKKCLNKIQAFKEQGKTILFVSHDMSTVRRICDRCIFIRKGGEVIEGSTDRMVGLYMKLLYAKSEEHKKEEQKSEESLADFDFKLHEADEFKDGNREGNKKLEITKLYFSDKEGRPRNFFGTEENIKVNVEFRKNTDIKAAVMAFEIITEEGYKLIYHDCKQDGMLITEMKDTNMVSFSLQNELLLKSKYYFSIALMDENLQEIYDFRHKHYWFTIHEGNIKEDGKVKISCDWML, MGSDKIHHHHHHMVYPVRIDTIRYDRKFSFVVFVEDIQSSHQIIDNIMDIGDEIGYPYEVIVSAKDQVTDDYYSDEIKVVGTGLNRRSDGIQRSLKSSTGNYFVIFDPNIRYSLSYADLLYGYAETGSSEVLVSEILGFQTDVLRSVGGWRDLSYGEDIDLLVRVIDNYGVITYPFYGLKQIDLTELIKSTDSIRSGKIKKLRDLIISCNFKYQDIKTIAKILDKSSRISRLLYLSKILSNFARIRPYERPKNNYLTIMERIMESILAKEFLKITTVDFKPSLAISTKTAEYLAGESPLWRITEENGNFVREKI

— the DeepSol protein solubility set
